The nature of the data set: label from the status in PepcDB records.
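Further: failed if final PepcDB status was selected cloned or expressed and not failed if soluble or beyond.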

Take “MTDRIMALVDGSGFSRSVCLHAAWLAQRLELPVDLLHVLGRREAADRGDLSGALQLGARTALLEELAALDAERARLAQAQGRAILEDAQAILAAESVETTPHLRQGDLIDTVAGFERSGRALVVGKRGRAAGFASAHLGSNLERLLRASKLPVLIVPADCR”: the protein production entry is recorded as “failed”.

For “MTDYFHLHFNKGEFNAENLFIELKGNFAVYGSRWYFGESIETLKGTARTLDKADGAISLEDGIISRNGIALLDDSQGFIWDEQSGYIERENQIDLYFFAYGHDYRGAIRDFYHLTGSTPLLPRYALGNWWSRYWPYTSDEYLDLIDRFETEKIPLSIGVLDMDWHITDIPARFGSGWTGYSWNRNLIPNPEQLLQQLHDRKLKLSLNVHPADGIRAYEEAYPQIAKRLGLNVELEEPAIFDFFNPSFREAYFKDVHYELEKQGVDFWWIDWQQGTQGMLDPLWLLNHYHYQDSCKNAEGGLILSRYAGPGSHRYPVGFSGDTIISWNSLRFQPYFTATASNIGYSWWSHDIGGHMLGDYDEELQTRWLQFGVFSPITRLHSSRSPFNSKEPWFFSETTSKIMKKYLRLRHQMIPYLYTMNVQTHEEGAPLISPIYYFYPENDESYNVPNQYFFGTELMVAPIVEKMDLTFQSAKVDVWFPEGEWYDFFSEKKYTGGVKLSVYRDISTTPVFAKSGAIIPLVGSEIGMGVDLPEVVDWYVFPGKQHSFEMLEDQNGQRYKTRLSIDWEMGMVELALQGDSSIVPSNRKHRIHFKGTNVSIIELPNKNDTAKFEWKDNKRTSLNDEVFRLLKTASLPYELKDRLLNQFINAKNSHDLMNILHHQDKELRGRLLEMIFTSQNLEHHHHHH”, the protein production result is recorded as “failed”. The same measure for “MTDYVNYNQERWNRVSARQGNAYTVPLSHEEFLVAKDKPLSVSLTVGKTVPLDWFEKAKGKKLLGLACGGGQQGPISAAHSYETTILDFSKEQLDKDRLVAERENLDLQTVQADMTQAFPFEDESFDIIFCPVSNIYIEDLANMWQESYRVLKKGGLLMVGYMNPWIYVFDADDVWEHPDKTLVPKYSLPFNARQLEEAGQITIDPEYGYEFSHTLEEQIAGQLRAGFAMIDFYESKDSRNRLTQFASDYLANLSMKW”: “failed”. For “MTEARAGLFARRRYLPALAVLYAALWLALAIEPHDRSDWLLENALVLGFGVALYATRRWFVFSRVSYTLIFLYLCLHAVGAHYTYSLVPYDAWWQRLTGHSLDQLLGWERNQFDRLVHFSYGLLLAYPIREIFLRVVDVRGFWGYLLPLDVALSTSALYELIEWGAAEFFGGELGVAYLGTQGDIWDAQKDMALAGLGALIAMLLTALFNRGARRDPARDWVDRMKPGHT”, the protein production entry is on record as “failed”. Regarding “MTEASAPLIDVDPRLLEVLVCPVTRGPLEYDRAKGELISRAAKLAYPIRDGVPIMLPEEARELEGLEHHHHHH”, the protein production entry is “not failed”. Consider “MTEDQVEILEYNFNKVNKHPDPTTLCLIAAEAGLTEEQTQKWFKQRLAEWRRSEGLPSECRSVTD”, for which the protein production result was “not failed”. Turning to “MTEDRLSAEDKKFLEVERALKEAALNPLRHATEELFGDFLKMENITEICYNGNKVVWVLKNNGEWQPFDVRDRKAFSLSRLMHFARCCASFKKKTIDNYENPILSSNLANGERVQIVLSPVTVNDETISISIRIPSKTTYPHSFFEEQGFYNLLDNKEQAISAIKDGIAIGKNVIVCGGTGSGKTTYIKSIMEFIPKEERIISIEDTEEIVFKHHKNYTQLFFGGNITSADCLKSCLRMRPDRIILGELRSSEAYDFYNVLCSGHKGTLTTLHAGSSEEAFIRLANMSSSNSAARNIKFESLIEGFKDLIDMIVHINHHKQCDEFYIKHR”, the protein production result is reported as “not failed”. As to “MTEEHVVLLDEQDKPSGTLEKYAAHTLNTPLHLAFSCWLFNEDGQLLVTRRSLSKKAWPGVWTNSVCGHPQQGETTEEAIIRRCRFELGVEITDLTPVYPHFSYRATDPNGIVENEVCPVFAARATSVLQVNSEEVMDYQWSEFKSVWKSLLATPWAFSPWMVMQASDEQARERLLNYCQR”, the protein production entry is given as “not failed”. As to “MTEGLAVELAGLRSFSIVMPAYNVVTQRGERIFRETLESIAASCRYLQQHFPYTPEGELILISDGSTDRTCDVAMAGWPNAVPLQLVGLPTNVGIAAARNIGVRLAKGEVIFFCDADDLYRPEHLFLALSVLNQPLPEPYAPAYFGAVRTGVYCRDRLHPYWHKSLEQTLVLNLAVRREVHEFIGGFPEDEVFRQFRYGAEDVAYAYWLHQFCHTARLEQRTVEYRRFPNSVFDRQLKKFQAAPGTVADDLDEGDRQQEAQIRQIMATRLQELQAKAAQGVALEHHHHHH”, the protein production entry is listed as “failed”. With “MTEHSLWRFSRALHRALNDRQTEELATIIDDNIDWAIYGPIDMFPFFGARQGKAAVLEVCRQIADSVRIYRYHRESVMLGIDSAASMVRYSLTAAGTNRPISVRMALFTQFQNGRLTNLRMVLDTFDLVEQALGRPIHLPKIA” the entry was “not failed”; with “MTEIALIGNPNSGKTSLFNLLTGTSQRVGNWPGVTVERKSGNVKKLKEISVQDLPGIYSMSPYSPEEKVARDYLLSNHADSILNVVDATNLERNLYLTTQLIETGIPVTIALNMSDVLKNQGKSINSDKLAYQMGVPVVATSALKNTGVDKAVKKASQTTKGSVDSVQYPTYDAKFEAAIAQIIEVLGQTVPERSSRFYAIKLFERDRLVEEELDLSPFQKKEIKDIIQITEEVFTEDSESIVINQRYAFIERVSQMAQSQDNDFKMSASDKIDKIVTNRVLALPIFAVVMFLVYYLSIQTVGTMGTDWVNDILFGKYVPEFVTGVLEALKVQAWLQSLIIDGVVAGVGTVLGFLPQIFVLFICLGILEDIGYMSRIAFVMDRIFRRFGLSGKSFIPMLISTGCGVPGIMASRTIENERDRRITIMTTTFMPCSAKLSVIALIAGAFFPHNPWIAPSAYFMGMIAIILSGIALKKTSFLGGYTSPFIMELPSYHLPKVDAVLRYAFGKAMSFVKRAGTIIFSLTVLIWFMSSYNFTLHSVDTENSILASLGRLLAWIFTPLGFGNWKATVAALTGLAAKETVVATFGILYNNPDATETTHSLWVSLQGDYTALAAYSFLTFNLLCAPCFASIGAIKREMGNLKWTLVAIAYQTGLAYLVSLIIYQLGLVAFYGKPVTLWTGLALVLLLVMLYFIIRKPRQVKEKVITLDNLSLSHN”, “failed”; with “MTEIDSNLKDAQSVAVSGHVRPDGDCVGSTLAVYNYIKDYYPDIKARLYLEPSPNIFKFMQRADEIDSSYADDTVYDLFIACDCSDTGRLGSAAKYFESAKRTLCIDHHVTNGAFADTNYIFPDASSTCELVFELLPKERITIQIAECIYTGMVHDTGVFQYSCTSKKTMDIAGSLMEMGIDYSRIIDDTFYTKTFAQNKIMGQALLNAALYLNGDVILSAVSRAEMEKYDVLPKHLDGIVNQLRVTKDIKVAVFLYENEDGTYKGSLRVNGDYDVAKVASVFGGGGHVKAAGFTIEGPLEVATDRILTAIKDNI”, “failed”. With “MTEIKYKVITKDAFALPYTIIKAKNQPTKGVIVYIHGGGLMFGKANDLSPQYIDILTEHYDLIQLSYRLLPEVSLDCIIEDVYASFDAIQSQYSNCPIFTFGRSSGAYLSLLIARDRDIDGVIDFYGYSRINTEPFKTTNSYYAKIAQSINETMIAQLTSPTPVVQDQIAQRFLIYVYARGTGKWINMINIADYTDSKYNIAPDELKTLPPVFIAHCNGDYDVPVEESEHIMNHVPHSTFERVNKNEHDFDRRPNDEAITIYRKVVDFLNAI” the entry was “failed”; with “MTEIYTSVLSYRLLEGKAYSDADTRSLDRMMRSIDEFFSANPGYINFHIYRSYRTDSDVIFWYSSRNPDLMILAKERVQASMRPIAVSSFSSISIYDESPYNAMNKKLEDSLRLPPLRYFVAYPMSKTPDWYLLDFDTRKEIMHEHIKMALNHPDEKGIRSYTTYSFGIGDQEFVVLYEIPDIAAWSRVTEKLREARARKWIIKETPILLGRLVDAGDIAGFLL”, “not failed”. The same measure for “MTELATMEFHAQPQAGEPKPWAFPAPERGSLDNGLTVLRCHRPGQQVVAVEVLLDAPLDAEPAGLDGVATIMARAFSEGTDKHSAEDFAAELERCGATLDAHADHPGVRLSLEVPASRLGKALGLLADALRAPAFADGEVERLVRNRLDEIPHELANPSRRAAKELSKELFPADARMSRPRQGTEETVETIDSAAVRAFYERHVRPATATAVVVGDLTGVDLDALLADTLGAWTGSAAEPRPVPPVTADDRGRVVIVDRPGAVQTQLLIGRTGADRHDRVWPAQVLGTYCLGGTLTSRLDRVLREEKGYTYGVRAFGQVLRSAPDGTGAAMLAISGSVDTPNTGPALEDLWTVLRKLAAEGLTDAERDVAVQNLVGVAPLKYETAAAVASTLADQVEQHLPDDFQATLYRQLAATGTVEATAAVVNAFPVDRLVTVLVGDAAQIKEPVEALGIGEVTVVAAE”: “failed”.

Values taken from a protein production outcome set (Wang et al. 2014).
